# From US20240343800A1 (Merck KGaA, published 2024)
# Key:
# human ROR1 (on cells) [1] = target: T1, human ROR1 (on cells) (human, UniProt Q01973 30-937); assay: cell-based or functional assay
# human ROR1 (on cells) [2] = target: T1, human ROR1 (on cells); assay: cell-based or functional assay; remark: listed apart in the source
# human ROR1 (on cells) [3] = target: T1, human ROR1 (on cells); assay: cell-based or functional assay; remark: listed apart in the source
# human ROR1 (on cells) [4] = target: T1, human ROR1 (on cells); assay: cell-based or functional assay; remark: listed apart in the source
# [5] = target: T2, human CD3 (on Jurkat T cells or human CD8+ T cells) (human, UniProt P07766 23-207; P09693 23-182; P04234 22-171; P20963 22-164); assay: flow cytometry, human CD8+ T cells
# T2 construct: Entries are printed with signal peptides; also called huCD3; CD3ε
# T2 sequence (P07766 23-207 limits assumed, chain 1 of 4): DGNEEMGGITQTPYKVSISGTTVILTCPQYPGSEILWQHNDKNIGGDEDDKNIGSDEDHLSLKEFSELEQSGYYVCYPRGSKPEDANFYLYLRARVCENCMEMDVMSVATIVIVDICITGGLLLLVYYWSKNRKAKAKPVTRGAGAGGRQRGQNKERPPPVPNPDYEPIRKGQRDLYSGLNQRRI
# T2 sequence (P09693 23-182 limits assumed, chain 2 of 4): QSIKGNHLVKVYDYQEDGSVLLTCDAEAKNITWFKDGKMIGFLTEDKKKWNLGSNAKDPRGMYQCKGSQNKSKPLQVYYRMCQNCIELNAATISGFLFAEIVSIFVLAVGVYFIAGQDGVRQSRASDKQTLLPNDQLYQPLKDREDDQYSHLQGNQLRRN
# T2 sequence (P04234 22-171 limits assumed, chain 3 of 4): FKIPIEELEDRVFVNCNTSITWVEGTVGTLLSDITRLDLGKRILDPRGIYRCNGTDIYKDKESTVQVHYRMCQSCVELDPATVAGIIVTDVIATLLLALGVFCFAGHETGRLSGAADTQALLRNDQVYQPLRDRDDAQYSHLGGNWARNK
# T2 sequence (P20963 22-164 limits assumed, chain 4 of 4): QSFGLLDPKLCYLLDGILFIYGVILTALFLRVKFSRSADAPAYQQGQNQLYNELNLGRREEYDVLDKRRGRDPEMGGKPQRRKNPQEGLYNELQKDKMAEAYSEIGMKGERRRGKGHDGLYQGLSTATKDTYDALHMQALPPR
# Procedure: (§1) After 15-minutes of incubation at room temperature, the cells were washed twice with 200 μL of PBS by centrifugation at 500×g for 5 minutes at room temperature and resuspended in […] of 10% goat serum in BD staining buffer (BD Biosciences, Cat No: 554657). […] The plates were then covered with foil to avoid direct light and incubated for 60 minutes at 4° C. […] After incubating for 30 minutes at 4° C., the cells were washed twice with 200 μL of PBS by centrifugation at 500×g for 5 minutes at room temperature and resuspended into 100 μL of fixation buffer (BioLegend, Cat No: 420801). The samples were then analyzed on a flow cytometer for binding signal using FlowJo software. ROR and CD3 binding EC₅₀s (concentration vs mean fluorescence intensity (MFI)) for reference molecules and test bispecific TCEs were obtained using 4-parameter non-linear regression curve fitting in GraphPad Prism.
# [6] = target: T3, cynomolgus CD3 (on cynomolgus pan-T cells) (cynomolgus, UniProt Q95LI5 22-198); assay: flow cytometry, cynomolgus pan-T cells
# T3 construct: whole, on cells
# T3 sequence (Q95LI5 22-198): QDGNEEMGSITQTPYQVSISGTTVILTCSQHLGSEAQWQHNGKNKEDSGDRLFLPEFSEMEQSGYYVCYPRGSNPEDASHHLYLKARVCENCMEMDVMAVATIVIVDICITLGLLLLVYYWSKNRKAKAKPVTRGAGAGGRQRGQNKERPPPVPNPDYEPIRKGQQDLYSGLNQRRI
# Procedure: as §1
# human ROR1 (on cells) [7] = target: T1, human ROR1 (on cells); assay: flow cytometry, ROR1+ MDA-MB-231 cells
# Procedure: as §1
# [8] = target: T4, mouse ROR1 (on 4T1 cells engineered to overexpress it) (mouse, UniProt Q9Z139 30-937); assay: flow cytometry, 4T1 cells overexpressing mouse ROR1
# T4 construct: whole, on cells; also called muROR1; mROR1
# Procedure: as §1
# [9] = target: T4, mouse ROR1 (on 4T1 cells engineered to …); assay: flow cytometry; reference: human ROR1 on MDA-MB-231 cells
binder,measurement,setting,value
"82H02 TCE #1 (sequence optimized 82H02 bispecific TCE in Format 1A, high ROR1 / high CD3 affinity) (bispecific antibody, also called 82H02 #1; 82H02 VL1.07x1F3.5-VH1.03) heavy 1: EVQLVESGGGLVQPGGSLKLSCAASGFTFNTYAMNWVRQASGKGLEWVGRIRSKYNNYATYYADSVKGRFTISRDDSKNTLYLQMNSLKTEDTAVYYCVRHGNFGASYVSWFAYWGQGTMVTVSSASTKGPSVFPLAPSSKSTSGGTAALGCLVKDYFPEPVTVSWNSGALTSGVHTFPAVLQSSGLYSLSSVVTVPSSSLGTQTYICNVNHKPSNTKVDKKVEPKSCDKTHTCPPCPAPEAAGGPSVFLFPPKPKDTLMISRTPEVTCVVVDVSHEDPEVKFNWYVDGVEVHNAKTKPREEQYNSTYRVVSVLTVLHQDWLNGKEYKCKVSNKALGAPIEKTISKAKGQPFRPEVHLLPPSREEMTKNQVSLTCLARGFYPKDIAVEWESNGQPENNYKTTPSRQEPSQGTTTFAVTSKLTVDKSRWQQGNVFSCSVMHEALHNHYTQKTISLSPGK heavy 2: EIVLTQSPATLSLSPGERATLSCRASQSVSSYLAWYQQKPGQAPRLLIYDASNRATGIPARFSGSGSGTDFTLTISSLEPEDFAVYYCQQRSNWPPSTFGQGTRLEIKGGGGSGGGGSGGGGSGGGGSEVQLLESGGGLVQPGGSLRLSCAASGFTFTSYAMSWVRQAPGKGLEWVSTISGSGGGTYYTDSVKGRFTISRDNSKNTLYLQMNSLRAEDTAVYYCAQGSSIFDYWGQGTLVTVSSEPKSSDKTHTCPPCPAPEAAGGPSVFLFPPKPKDTLMISRTPEVTCVVVDVSHEDPEVKFNWYVDGVEVHNAKTKPREEQYNSTYRVVSVLTVLHQDWLNGKEYKCKVSNKALGAPIEKTISKAKGQPREPQVYTLPPPSEELALNELVTLTCLVKGFYPSDIAVEWLQGSQELPREKYLTWAPVLDSDGSFFLYSILRVAAEDWKKGDTFSCSVMHEALHNHYTQKSLDRSPGKGGGGSGGGGSGGGGSGGGGSEIVLTQSPATLSLSPGERATLSCRASQSVSSYLAWYQQKPGQAPRLLIYDASNRATGIPARFSGSGSGTDFTLTISSLEPEDFAVYYCQQRSNWPPSTFGQGTRLEIKGGGGSGGGGSGGGGSGGGGSEVQLLESGGGLVQPGGSLRLSCAASGFTFTSYAMSWVRQAPGKGLEWVSTISGSGGGTYYTDSVKGRFTISRDNSKNTLYLQMNSLRAEDTAVYYCAQGSSIFDYWGQGTLVTVSS light: QAVVTQEPSLTVSPGGTVTLTCRSSTGAVTTSNYANWVQQKPGQAPRGLIGGTNKRAPGTPARFSGSLLGGKAALTLSGVQPEDEAEYYCALWYSNLWVFGGGTKLTVLGQPKAAPSVTLFPPSSEELQANKATLVCLISDFYPGAVTVAWKADSSPVKAGVETTTPSKQSNNKYAASSYLSLTPEQWKSHRSYSCQVTHEGSTVEKTVAPTECS","TDCC EC50, PBMCs: MDA-MB-231",human ROR1 (on cells) [1],24600 pM
same,"IFNγ release EC50, PBMCs: MDA-MB-231",human ROR1 (on cells) [2],205000 pM
same,"Max IFNγ, PBMCs: MDA-MB-231",human ROR1 (on cells) [2],1120 pg/mL
same,"TDCC AUC, PBMCs: MDA-MB-231-0.2",human ROR1 (on cells) [3],39000
same,"TDCC AUC, PBMCs: MDA-MB-231-0.4",human ROR1 (on cells) [3],50200
same,"TDCC AUC, PBMCs: MDA-MB-231-0.6",human ROR1 (on cells) [3],57100
same,"TDCC AUC, PBMCs: MDA-MB-231-1.3",human ROR1 (on cells) [3],64800
same,"TDCC AUC, PBMCs: MDA-MB-231-7",human ROR1 (on cells) [3],74200
same,"TDCC EC50, PBMCs: MDA-MB-231-0.2",human ROR1 (on cells) [3],11.9 pM
same,"TDCC EC50, PBMCs: MDA-MB-231-0.4",human ROR1 (on cells) [3],10.3 pM
same,"TDCC EC50, PBMCs: MDA-MB-231-0.6",human ROR1 (on cells) [3],10 pM
same,"TDCC EC50, PBMCs: MDA-MB-231-1.3",human ROR1 (on cells) [3],7.03 pM
same,"TDCC EC50, PBMCs: MDA-MB-231-7",human ROR1 (on cells) [3],4.33 pM
same,"TDCC Emax, PBMCs: MDA-MB-231-0.2",human ROR1 (on cells) [3],40.7%
same,"TDCC Emax, PBMCs: MDA-MB-231-0.4",human ROR1 (on cells) [3],52.2%
same,"TDCC Emax, PBMCs: MDA-MB-231-0.6",human ROR1 (on cells) [3],60.2%
same,"TDCC Emax, PBMCs: MDA-MB-231-1.3",human ROR1 (on cells) [3],66.5%
same,"TDCC Emax, PBMCs: MDA-MB-231-7",human ROR1 (on cells) [3],75.8%
same,"IFNγ release AUC, PBMCs: MDA-MB-231-0.2",human ROR1 (on cells) [4],2.09e+06
same,"IFNγ release AUC, PBMCs: MDA-MB-231-0.4",human ROR1 (on cells) [4],2.43e+06
same,"IFNγ release AUC, PBMCs: MDA-MB-231-0.6",human ROR1 (on cells) [4],3.15e+06
same,"IFNγ release AUC, PBMCs: MDA-MB-231-1.3",human ROR1 (on cells) [4],4.93e+06
same,"IFNγ release AUC, PBMCs: MDA-MB-231-7",human ROR1 (on cells) [4],5.16e+06
same,"IFNγ release EC50, PBMCs: MDA-MB-231-0.2",human ROR1 (on cells) [4],143 pM
same,"IFNγ release EC50, PBMCs: MDA-MB-231-0.4",human ROR1 (on cells) [4],123 pM
same,"IFNγ release EC50, PBMCs: MDA-MB-231-0.6",human ROR1 (on cells) [4],80.3 pM
same,"IFNγ release EC50, PBMCs: MDA-MB-231-1.3",human ROR1 (on cells) [4],24.3 pM
same,"IFNγ release EC50, PBMCs: MDA-MB-231-7",human ROR1 (on cells) [4],20.4 pM
same,"IFNγ release Emax, PBMCs: MDA-MB-231-0.2",human ROR1 (on cells) [4],2860%
same,"IFNγ release Emax, PBMCs: MDA-MB-231-0.4",human ROR1 (on cells) [4],3050%
same,"IFNγ release Emax, PBMCs: MDA-MB-231-0.6",human ROR1 (on cells) [4],3980%
same,"IFNγ release Emax, PBMCs: MDA-MB-231-1.3",human ROR1 (on cells) [4],5260%
same,"IFNγ release Emax, PBMCs: MDA-MB-231-7",human ROR1 (on cells) [4],5420%
same,EC50,[5],2800 pM
same,EC50,[6],4100 pM
same,EC50,human ROR1 (on cells) [7],810 pM
same,EC50,[8],2190 pM
same,fold difference in apparent ROR1 binding affinity between human and mouse ROR1,[9],~3 fold
